Measurements: article PMC6999705

Tests used:
MFG-E8-Ig (mouse) = MFG-E8-Ig (mouse) (UniProt P21956); experiment: SEC
RGE-MFG-E8-Ig (mouse) = RGE-MFG-E8-Ig (mouse) (UniProt P21956); experiment: SEC

Row | stoichiometry N (MFG-E8-Ig (mouse)) | stoichiometry N (RGE-MFG-E8-Ig (mouse)) | Substance
1 | 2 |  | MFG-E8-Ig (from UniProt P21956 23-148) (Fc fusion)
2 |  | 2 | RGE-MFG-E8-Ig (from UniProt P21956 23-148) (Fc fusion)
